For two substances, net absorbance results are on record in publication PMC3658131.

What all share (experiment): ELISA
For orientation: ELISA stands for enzyme-linked immunosorbent assay.

The target in test [1] is Bd-cys dimer (affinity-purified cysteine-terminated B-domain, largely dimers linked by a disulfide bond), unlabeled (Staphylococcus aureus).
Test [2] addresses FL-labeled Bd-cys dimer (disulfide-linked dimer of cysteine-terminated B-domain labelled with FITC) (Staphylococcus aureus).
Test [3] addresses Staphylococcus aureus protein A (SpA), wild type, full-length (Staphylococcus aureus) (UniProt P02976).
Sequence of UniProt P02976 (P02976 37-485): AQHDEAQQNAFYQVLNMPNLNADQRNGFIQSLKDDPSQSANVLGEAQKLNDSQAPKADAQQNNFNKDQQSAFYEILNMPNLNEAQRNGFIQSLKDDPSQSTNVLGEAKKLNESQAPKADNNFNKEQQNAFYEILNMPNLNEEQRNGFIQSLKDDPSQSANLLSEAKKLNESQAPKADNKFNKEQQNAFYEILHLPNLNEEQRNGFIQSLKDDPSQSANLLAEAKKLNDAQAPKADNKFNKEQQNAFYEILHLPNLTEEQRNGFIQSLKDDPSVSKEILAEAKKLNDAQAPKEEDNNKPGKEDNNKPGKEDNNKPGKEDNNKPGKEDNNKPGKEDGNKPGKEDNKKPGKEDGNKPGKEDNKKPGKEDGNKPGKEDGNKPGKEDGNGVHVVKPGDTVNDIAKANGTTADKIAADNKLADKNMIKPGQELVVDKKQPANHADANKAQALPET

Consider “HRP-conjugated guinea pig IgG (antibody)”, for which the results for the net absorbance at 405 nm (net absorbance (405 nm)) in test [1], in test [2] and in test [3] were 0.85, 0.16 and 0.84, respectively.
Consider HRP-conjugated rabbit IgG (antibody), for which the net absorbance at 405 nm (net absorbance (405 nm)) in test [1] stood at 0.98; in test [2], 0.21; in test [3], 1.25.
